Source: PMC9083542, “Small Molecule Inhibitor Targeting CDT1/Geminin Protein Complex Promotes DNA Damage and Cell Death in Cancer Cells” (Frontiers in Pharmacology, 2022)

B1: Full-length human Geminin (natural protein, UniProt O75496 1-209, looked up)
chain: MNPSMKQKQEEIKENIKNSSVPRRTLKMIQPSASGSLVGRENELSAGLSKRKHRNDHLTSTTSSPGVIVPESSENKNLGGVTQESFDLMIKENPSSQYWKEVAEKRRKALYEALKENEKLHKEIEQKDNEIARLKKENKELAEVAEHVQYMAELIERLNGEPLDNFESLDNQEFDSEEETVEDSLVEDSEIGTCAEGTVSSSTDAKPCI
notes: Geminin, human, full length, cloned into pET22b; pET22b can add a C-terminal His tag (surmise); also called full length Geminin; source: E. coli Rosetta 2 (DE3), purified (Ni-NTA IMAC, SEC)

Tests used:
CDT1 = biological target: T1, CDT1 (Homo sapiens, UniProt Q9H211); assay: SPR inhibition of Geminin binding to immobilized CDT1; AlphaScreen IC50 […]; FRET in MCF7 cells
T1 construct: tCDT1 (residues 158–356); also miniCDT1 (residues 158–396); with Geminin
T1 sequence (Q9H211 158-356): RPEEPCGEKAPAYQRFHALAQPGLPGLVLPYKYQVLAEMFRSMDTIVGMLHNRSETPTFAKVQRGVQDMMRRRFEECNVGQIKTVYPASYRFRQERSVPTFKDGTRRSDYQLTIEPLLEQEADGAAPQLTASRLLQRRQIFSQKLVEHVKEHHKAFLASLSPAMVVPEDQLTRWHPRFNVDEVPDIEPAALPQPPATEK
T1 sequence (O75496 1-209 partner): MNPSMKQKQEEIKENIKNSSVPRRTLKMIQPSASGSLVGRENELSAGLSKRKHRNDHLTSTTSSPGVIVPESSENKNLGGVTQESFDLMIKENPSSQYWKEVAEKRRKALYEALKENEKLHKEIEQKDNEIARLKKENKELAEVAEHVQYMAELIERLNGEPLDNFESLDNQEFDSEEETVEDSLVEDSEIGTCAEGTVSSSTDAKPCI

CDT1 (Homo sapiens) = CDT1 (Homo sapiens) (UniProt Q9H211); conditions: cited from earlier work
[1] = biological target: T2, His-tagged human CDT1^158-396 (miniCDT1), wild type (human, UniProt Q9H211 158-396); assay: SPR; Biacore T100, 25°C; about 5.000 RU of miniCDT1 variants held on a Ni NTA chip via N-terminal His-tag; full-length Geminin injected at 1-100 nM; 20 mM Tris pH 7.5, 200 mM NaCl, 30 μl/min; conditions: both partners purified
T2 construct: CDT1, human, residues 158-396 (miniCDT1); plasmid described in De Marco et al., 2009; also called His6-tagged miniCDT1; source: E. coli Rosetta 2 (DE3), expressed alone or co-expressed with Geminin variants, purified (Ni-NTA IMAC, SEC); not shown: His6, N-terminal, kept
T2 sequence (looked up): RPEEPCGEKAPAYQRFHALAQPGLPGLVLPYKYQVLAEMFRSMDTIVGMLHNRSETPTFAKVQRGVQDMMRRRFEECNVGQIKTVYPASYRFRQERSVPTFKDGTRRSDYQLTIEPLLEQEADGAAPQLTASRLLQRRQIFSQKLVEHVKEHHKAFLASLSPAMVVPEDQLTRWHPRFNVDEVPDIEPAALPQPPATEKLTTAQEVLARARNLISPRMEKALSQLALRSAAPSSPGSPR

[2] = biological target: T3, His-tagged human CDT1^158-396 Y170A (miniCDT1Y170A) (human, UniProt Q9H211 158-396, Y170A); assay: as above; conditions: both partners purified
T3 construct: CDT1, human, residues 158-396 with Y170A, cloned into pET28a; also called His6-tagged miniCDT1^Y170A; source: E. coli Rosetta 2 (DE3), expressed alone or co-expressed with ΔDBGeminin, purified (Ni-NTA IMAC, SEC); not shown: His6, N-terminal, kept
T3 sequence (looked up): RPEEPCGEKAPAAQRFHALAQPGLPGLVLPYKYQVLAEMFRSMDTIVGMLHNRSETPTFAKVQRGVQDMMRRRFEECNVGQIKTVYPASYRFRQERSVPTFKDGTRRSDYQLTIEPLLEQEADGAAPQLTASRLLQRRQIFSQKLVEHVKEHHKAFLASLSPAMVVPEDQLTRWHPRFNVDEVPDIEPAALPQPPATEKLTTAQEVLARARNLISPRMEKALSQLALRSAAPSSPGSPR

[3] = biological target: T4, His-tagged human CDT1^158-396 F173A (miniCDT1F173A) (human, UniProt Q9H211 158-396, F173A); assay: as above; conditions: both partners purified
T4 construct: CDT1, human, residues 158-396 with F173A, cloned into pET28a; source: E. coli Rosetta 2 (DE3), expressed alone or co-expressed with ΔDBGeminin, purified (Ni-NTA IMAC, SEC); not shown: His6, N-terminal, kept
T4 sequence (looked up): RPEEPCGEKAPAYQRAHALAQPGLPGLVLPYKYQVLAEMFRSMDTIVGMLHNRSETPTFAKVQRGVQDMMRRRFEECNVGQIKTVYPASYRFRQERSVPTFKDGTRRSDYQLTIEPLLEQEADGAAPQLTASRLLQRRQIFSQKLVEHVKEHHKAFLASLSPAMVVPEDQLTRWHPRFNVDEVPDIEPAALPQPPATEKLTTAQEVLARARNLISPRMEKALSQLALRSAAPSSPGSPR

CDT1-GFP = biological target: T5, CDT1-GFP (UniProt Q9H211 1-546); assay: FRET or BRET; sensitized emission FRET in fixed MCF7 cells stably expressing CDT1-GFP (or GFP-NLS as control), transiently transfected with Geminin-dHcRed; with DMSO or AF615 at 11, 33, 100 μM for 24 h; conditions: partners not purified
T5 construct: CDT1 fused to GFP; plasmid and cell line from Xouri et al., 2007; also called MCF7 CDT1-GFP; source: MCF7 cells stably expressing CDT1-GFP, in fixed cells
T5 sequence (looked up): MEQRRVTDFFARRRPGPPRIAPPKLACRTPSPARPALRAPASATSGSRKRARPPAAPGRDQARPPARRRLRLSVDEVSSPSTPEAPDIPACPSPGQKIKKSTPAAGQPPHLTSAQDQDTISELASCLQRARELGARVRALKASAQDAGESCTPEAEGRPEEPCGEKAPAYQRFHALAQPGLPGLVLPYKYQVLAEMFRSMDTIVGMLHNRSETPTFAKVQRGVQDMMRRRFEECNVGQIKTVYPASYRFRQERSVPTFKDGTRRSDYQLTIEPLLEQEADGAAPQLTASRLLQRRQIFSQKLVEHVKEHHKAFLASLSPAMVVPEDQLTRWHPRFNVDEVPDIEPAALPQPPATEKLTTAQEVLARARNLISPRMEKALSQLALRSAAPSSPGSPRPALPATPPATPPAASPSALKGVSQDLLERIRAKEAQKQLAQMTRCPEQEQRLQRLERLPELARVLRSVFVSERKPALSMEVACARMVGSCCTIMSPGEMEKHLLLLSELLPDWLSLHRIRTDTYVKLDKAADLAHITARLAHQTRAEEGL

[4] = biological target: T3, His-tagged human CDT1^158-396 Y170A …; assay: AlphaScreen or HTRF; HTS format and its optimisation (titration, data not shown): Flag-ΔDBGeminin/His6-miniCDT1Y170A complex 200-400 nM (300 nM in the screen), 10 μg/ml streptavidin Donor and nickel-chelate Acceptor beads, 25 nM biotinylated anti-Flag antibody; 25 mM Hepes pH 7.4, 100 mM NaCl, 0.2% BSA; conditions: both partners purified
[5] = biological target: T4, His-tagged human CDT1^158-396 F173A …; assay: AlphaScreen or HTRF; competition: Flag-ΔDBGeminin/His6-miniCDT1 mutant complex at 50 nM, streptavidin Donor beads with biotinylated anti-Flag antibody, nickel-chelate Acceptor beads; increasing untagged ΔDBGeminin; 25 mM Hepes pH 7.4, 100 mM NaCl, 0.1% BSA; 1.5 h at RT; conditions: both partners purified
[6] = biological target: T6, His-tagged human CDT1^158-396 L176A (miniCDT1L176A) (human, UniProt Q9H211 158-396, L176A); assay: as above; conditions: both partners purified
T6 construct: CDT1, human, residues 158-396 with L176A, cloned into pET28a; Could not be isolated on its own (limited solubility); used only as complex with ΔDBGeminin; source: E. coli Rosetta 2 (DE3), co-expressed with ΔDBGeminin, co-purified (Ni-NTA IMAC, SEC)
T6 sequence (looked up): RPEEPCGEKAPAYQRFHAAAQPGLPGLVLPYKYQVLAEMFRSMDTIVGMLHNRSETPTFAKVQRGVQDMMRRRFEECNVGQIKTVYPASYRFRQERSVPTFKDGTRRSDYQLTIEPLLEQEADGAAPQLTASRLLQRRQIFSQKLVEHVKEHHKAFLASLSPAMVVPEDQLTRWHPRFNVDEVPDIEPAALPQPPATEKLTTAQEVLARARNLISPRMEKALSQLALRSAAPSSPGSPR

[7] = biological target: B1; assay: SPR; Biacore T100, 25°C; tCDT1 (about 6.000 RU) or miniCDT1 covalently immobilised on a CM5 chip (amine coupling, pH 5.5); Geminin 12-966 nM with AF615 at 10 μM, 100 μM, 1 mM (20% DMSO); 20 mM Hepes pH 7.5, 200 mM NaCl, Tween 20 0.01%, 30 μl/min; conditions: both partners purified

O=C(NNC(=S)N1CCOCC1)c1cnccn1 [AF615] showed a Ki (CDT1) of 370 nM.

In the case of Geminin (from UniProt O75496), the Kd (CDT1 (Homo sapiens)) is listed as 4.4 nM.

Work on B1 yielded a Kd [1] of 9.4 nM, a Kd [2] of 41 nM and a Kd [3] of 25 nM.

B2: Geminin-dHcRed (natural protein, UniProt O75496 1-209, looked up)
chain: MNPSMKQKQEEIKENIKNSSVPRRTLKMIQPSASGSLVGRENELSAGLSKRKHRNDHLTSTTSSPGVIVPESSENKNLGGVTQESFDLMIKENPSSQYWKEVAEKRRKALYEALKENEKLHKEIEQKDNEIARLKKENKELAEVAEHVQYMAELIERLNGEPLDNFESLDNQEFDSEEETVEDSLVEDSEIGTCAEGTVSSSTDAKPCI
notes: Geminin fused to dHcRed; plasmid from Xouri et al., 2007; source: MCF7 cells, transiently transfected, in fixed cells
For B2, the “FRET mean intensity against cells expressing GFP-NLS and Geminin-dHcRed” value (CDT1-GFP) was about 3 fold.

B3: Flag-tagged Geminin^28-209 (ΔDBGeminin) (domain or fragment, human, UniProt O75496 28-209, looked up)
chain: MIQPSASGSLVGRENELSAGLSKRKHRNDHLTSTTSSPGVIVPESSENKNLGGVTQESFDLMIKENPSSQYWKEVAEKRRKALYEALKENEKLHKEIEQKDNEIARLKKENKELAEVAEHVQYMAELIERLNGEPLDNFESLDNQEFDSEEETVEDSLVEDSEIGTCAEGTVSSSTDAKPCI
notes: Geminin, human, residues 28-209 (lacks the N-terminal stretch with the destruction box), cloned into pET22b; also called Flag-tagged ΔDBGeminin; source: E. coli Rosetta 2 (DE3), co-expressed with miniCDT1 variants, co-purified (Ni-NTA IMAC, SEC)
B3 gave an AlphaScreen signal-to-background ratio [4] of over 20 fold.

B4: untagged ΔDBGeminin (domain or fragment, human, UniProt O75496 28-209, looked up)
chain: MIQPSASGSLVGRENELSAGLSKRKHRNDHLTSTTSSPGVIVPESSENKNLGGVTQESFDLMIKENPSSQYWKEVAEKRRKALYEALKENEKLHKEIEQKDNEIARLKKENKELAEVAEHVQYMAELIERLNGEPLDNFESLDNQEFDSEEETVEDSLVEDSEIGTCAEGTVSSSTDAKPCI
notes: Geminin, human, residues 28-209 (ΔDBGeminin), without the Flag tag; also called untagged ΔDBGeminin (Geminin 28-209)
For B4, the “excess of untagged ΔDBGeminin needed for a similar signal reduction” value [5] was 10 fold and the “excess of untagged ΔDBGeminin needed for a similar signal reduction” value [6] was 100 fold.

B5: His-tagged human CDT1^158-356 (tCDT1) (domain or fragment, UniProt Q9H211 158-356, looked up)
chain: RPEEPCGEKAPAYQRFHALAQPGLPGLVLPYKYQVLAEMFRSMDTIVGMLHNRSETPTFAKVQRGVQDMMRRRFEECNVGQIKTVYPASYRFRQERSVPTFKDGTRRSDYQLTIEPLLEQEADGAAPQLTASRLLQRRQIFSQKLVEHVKEHHKAFLASLSPAMVVPEDQLTRWHPRFNVDEVPDIEPAALPQPPATEK
notes: CDT1, human, residues 158-356 (tCDT1); plasmid described in De Marco et al., 2009; source: E. coli Rosetta 2 (DE3), purified (Ni-NTA IMAC, SEC)
B5: binds [7].
